Data published in US20020155563A1 (Bristol-Myers Squibb, published 2002).

Target: T1, Grb2 (adapter protein, from Jurkat T cell lysates) (human, UniProt P62993 1-217)
T1 construct: also called adapter protein Grb2
Assay: pull-down from Jurkat lysates on Talon beads, anti-Grb2 immunoblot
Description: In this Example, experiments were performed to determine if human MIST provided by the present invention associated with signaling proteins critical for cell activation. For this purpose, cell lysates from unstimulated Jurkat T cells, or TCR/CD3-activated Jurkat T cells, were prepared and precipitated with Talon resin beads (Clontech, Palo Alto, Calif.) preloaded with equivalent amounts (5 μg total) of His-MIST fusion proteins. The phosphotyrosine content of precipitated proteins was analyzed by SDS-PAGE followed by Western blotting with an anti-phosphotyrosine specific antibody (4G10, UBI, Hauppague, N.Y.).
More specifically, Jurkat T cells (10⁷/lane) were unstimulated, or were stimulated with monoclonal antibody (MoAb) to the T-cell receptor TCR/CD3 (G19-4-BMS) for 5 minutes at 37° C., and then lysed in 1% NP40-containing lysis buffer and incubated with Talon beads preloaded with equivalent amounts (50 μl of slurry resin) of the indicated His-MIST fusion proteins. Reactants and immunoprecipitates were subjected to SDS-PAGE on 4-20% gradient gels. […] Blot stripping was performed and the membrane was subsequently re-probed with anti-Grb2 MoAb (Santa Cruz Biotechnology, Inc., Santa Cruz, Calif.), anti-Cbl MoAb (Santa Cruz Biotechnology, Inc., Santa Cruz, Calif.), or anti-Vav1 MoAb (Upstate Biotechnology, Inc., Lake Placid, N.Y.).

binding result: no binding
B1: His-MIST-SH2 (poly-histidine tagged MIST SH2 domain, residues 320-443) (other, not shown: small tags and cut ends)
chain: QHNEWYIGEYSRQAVEEAFMKENKDGSFLVRDCSTKSKEEPYVLAVFYENKVYNVKIRFLERNQQFALGTGLRGDEKFDSVEDIIEHYKNFPIILIDGKDKTGVHRKQCHLTQPLPLTRHLLPL
notes: Recombinant, Sf9 cells; also called His-MIST-SH2 fusion protein
